Test results taken from article PMC12796354.
Values joined by “and” are separate entries in the source; they are usually repeats but may differ in a detail not shown here. Identical values can stand only once.

Tests used:
[1] = molecular target: tail tube protein (gp127) of phage 7-7-1 (Agrobacterium phage 7-7-1); assay: cryo-EM structure; single particle analysis of purified virions; extended tail, C6 helical refinement, twist 27.35°, rise 35.25 Å, 3.1 Å
[2] = molecular target: tail tube protein (gp127) of phage 7-7-1 (Agrobacterium phage 7-7-1); assay: cryo-EM structure; single particle analysis of purified virions; neck region, local refinements: portal C12 3.2 Å, collar C15 3.3 Å, neck 1 C3 3.5 Å, neck 2 + tail terminator + tail sheath + tail tube C6 3.6 Å
[3] = molecular target: short tail fiber (gp008) of phage 7-7-1 (Agrobacterium phage 7-7-1); assay: cryo-EM structure; single particle analysis of purified virions; baseplate region, local refinements: baseplate core complex C6 3.4 Å, tail fibers C1 3.5 Å
[4] = molecular target: central spike protein (gp112) of phage 7-7-1 (Agrobacterium phage 7-7-1); assay: as above
[5] = molecular target: long tail fiber (gp015) of phage 7-7-1 (Agrobacterium phage 7-7-1); assay: as above
[6] = molecular target: major capsid protein (gp003) of phage 7-7-1 (Agrobacterium phage 7-7-1); assay: cryo-EM structure; single particle analysis of purified virions in TM buffer (10 mM MgSO4, 20 mM Tris/HCl, pH 7.5); DNA-filled capsid, icosahedral symmetry, 3.4 Å
[7] = molecular target: portal protein (gp005) of phage 7-7-1 (Agrobacterium phage 7-7-1); assay: cryo-EM structure; single particle analysis of purified virions; neck region, local refinements: portal C12 3.2 Å, collar C15 3.3 Å, neck 1 C3 3.5 Å, neck 2 + tail terminator + tail sheath + tail tube C6 3.6 Å
[8] = molecular target: baseplate central hub protein (gp113) of phage 7-7-1 (Agrobacterium phage 7-7-1); assay: cryo-EM structure; single particle analysis of purified virions; baseplate region, local refinements: baseplate core complex C6 3.4 Å, tail fibers C1 3.5 Å
[9] = molecular target: garland protein (gp014) of phage 7-7-1 (Agrobacterium phage 7-7-1); assay: as above
[10] = molecular target: neck 2 protein (gp121) of phage 7-7-1 (Agrobacterium phage 7-7-1); assay: cryo-EM structure; single particle analysis of purified virions; neck region, local refinements: portal C12 3.2 Å, collar C15 3.3 Å, neck 1 C3 3.5 Å, neck 2 + tail terminator + tail sheath + tail tube C6 3.6 Å
[11] = molecular target: baseplate center piece protein (gp114) of phage 7-7-1 (Agrobacterium phage 7-7-1); assay: cryo-EM structure; single particle analysis of purified virions; baseplate region, local refinements: baseplate core complex C6 3.4 Å, tail fibers C1 3.5 Å
[12] = molecular target: neck 1 protein (gp119) of phage 7-7-1 (Agrobacterium phage 7-7-1); assay: cryo-EM structure; single particle analysis of purified virions; neck region, local refinements: portal C12 3.2 Å, collar C15 3.3 Å, neck 1 C3 3.5 Å, neck 2 + tail terminator + tail sheath + tail tube C6 3.6 Å
[13] = molecular target: decoration protein (gp002) of phage 7-7-1 (Agrobacterium phage 7-7-1); assay: cryo-EM structure; single particle analysis of purified virions in TM buffer (10 mM MgSO4, 20 mM Tris/HCl, pH 7.5); DNA-filled capsid, icosahedral symmetry, 3.4 Å
[14] = molecular target: baseplate wedge 1 (gp111) of phage 7-7-1 (Agrobacterium phage 7-7-1); assay: cryo-EM structure; single particle analysis of purified virions; baseplate region, local refinements: baseplate core complex C6 3.4 Å, tail fibers C1 3.5 Å
[15] = molecular target: baseplate wedge 2 (gp110) of phage 7-7-1 (Agrobacterium phage 7-7-1); assay: as above
[16] = molecular target: tail terminator protein (gp124) of phage 7-7-1 (Agrobacterium phage 7-7-1); assay: cryo-EM structure; single particle analysis of purified virions; neck region, local refinements: portal C12 3.2 Å, collar C15 3.3 Å, neck 1 C3 3.5 Å, neck 2 + tail terminator + tail sheath + tail tube C6 3.6 Å

**Q.** With “tail tube protein (gp127) of phage 7-7-1 (natural protein)” as the substance, how does the stoichiometry N [1] read?
**A.** Its stoichiometry N is 6.

**Q.** What about the stoichiometry N [2] of the same substance?
**A.** Its stoichiometry N is 6.

**Q.** How did the stoichiometry N [3] turn out when “short tail fiber (gp008) of phage 7-7-1 (natural protein)” was run?
**A.** The stoichiometry N was 3.

**Q.** “central spike protein (gp112) of phage 7-7-1 (natural protein)” was tested. Which stoichiometry N [4] did it give?
**A.** Its stoichiometry N is 3.

**Q.** “long tail fiber (gp015) of phage 7-7-1 (natural protein)” was tested. Which stoichiometry N [5] did it give?
**A.** The stoichiometry N was 3.

**Q.** For “major capsid protein (gp003) of phage 7-7-1 (natural protein)”, which stoichiometry N [6] is on record?
**A.** The stoichiometry N was 6 and 5.

**Q.** For “portal protein (gp005) of phage 7-7-1 (natural protein)”, which stoichiometry N [7] is on record?
**A.** Its stoichiometry N is 12.

**Q.** “baseplate central hub protein (gp113) of phage 7-7-1 (natural protein)” was tested. Which stoichiometry N [8] did it give?
**A.** The stoichiometry N was 3.

**Q.** For “garland protein (gp014) of phage 7-7-1 (natural protein)”, which stoichiometry N [9] is on record?
**A.** Its stoichiometry N is 2.

**Q.** With “neck 2 protein (gp121) of phage 7-7-1 (natural protein)” as the substance, how does the stoichiometry N [10] read?
**A.** The stoichiometry N was 6.

**Q.** “baseplate center piece protein (gp114) of phage 7-7-1 (natural protein)” was tested. Which stoichiometry N [11] did it give?
**A.** Its stoichiometry N is 6.

**Q.** With “neck 1 protein (gp119) of phage 7-7-1 (natural protein)” as the substance, how does the stoichiometry N [12] read?
**A.** Its stoichiometry N is 12.

**Q.** “decoration protein (gp002) of phage 7-7-1 (natural protein)” was tested. Which stoichiometry N [13] did it give?
**A.** The stoichiometry N was 2.

**Q.** “baseplate wedge 1 (gp111) of phage 7-7-1 (natural protein)” was tested. Which stoichiometry N [14] did it give?
**A.** The stoichiometry N was 6.

**Q.** Which stoichiometry N [15] does the source give for “baseplate wedge 2 (gp110) of phage 7-7-1 (natural protein)” here?
**A.** The stoichiometry N was 2.

**Q.** With “tail terminator protein (gp124) of phage 7-7-1 (natural protein)” as the substance, how does the stoichiometry N [16] read?
**A.** Its stoichiometry N is 6.
